Results taken from patent publication US20170274068A1, “IMMUNOLOGICAL REAGENT” (priority 2014, published 2017).

What was measured:
[1] = Optical density of antigen and lipopeptide formulations (450 nm); assay type: physicochemical; details: constant OVA (25 μg) plus increasing lipopeptide, up to 3-fold molar excess, PBS
Experimental: Optical density of antigen and lipopeptide formulations. A constant amount (0.55 nmol; 25 μg) of OVA was mixed with each lipopeptide at different protein:lipopeptide molar ratios in 50 μl of PBS in a 96-well plate at room temperature. The optical density of these solutions was then measured on a plate reader at a wavelength of 450 nm.

CD8+CD45.1+ OT-I cells = assay: In vivo proliferative T cell responses, adoptive transfer of CFSE labelled OT-I cells; set-up: species or system C57BL/6 mice; details: 3 μg OVA alone or with 3-fold molar excess lipopeptide, s.c., inguinal LNs day 3
Source text: In vivo proliferative T cell responses. […] Inguinal LNs were obtained 3 days after vaccination and CFSE intensities of CD8^+CD45.1^+ cells measured by flow cytometry.
To characterise early events associated with vaccine-mediated induction of CD8^+ T cell responses, the present inventors utilised the adoptive transfer of CD8^+ T cells from OTI transgenic mice that express the Vα2 TCR specific for OVA257. […] Analysis of OTI T cells in the draining lymph nodes of vaccinated animals was then carried out 3 days later and the loss of CFSE in these cells was used as an indicator of T cell proliferation.

[2] = Dynamic light scattering analysis of vaccine formulations; assay type: physicochemical
Experimental: FIG. 3. Particle size distribution of antigen and lipopeptide formulations. OVA (25 μg) was mixed with each lipopeptide at a 1:3 molar ratio of protein to lipopeptide in […] of PBS in a 96-well plate at room temperature. The size distribution of particulates in samples were then analysed by dynamic light scattering with each profile depicting the hydrodynamic radius (nm) of particles detected versus the percentage intensity of scattered light (% intensity).
To determine the size of complexes formed between OVA and each lipopeptide, we analysed these formulations by dynamic light scattering.

Molecule: CCCCCCCCCCCCCCCC(=O)OCC(CSCC(N)C(=O)N[C@@H](CO)C(=O)N[C@@H](CO)C(=O)NCCCC[C@H](NC(=O)[C@H](CCCCNC(=O)[C@H](CCCCNC(=O)[C@@H](N)CCCNC(=N)N)NC(=O)[C@@H](N)CCCNC(=N)N)NC(=O)[C@H](CCCCNC(=O)[C@@H](N)CCCNC(=N)N)NC(=O)[C@@H](N)CCCNC(=N)N)C(N)=O)OC(=O)CCCCCCCCCCCCCCC (some centres unmarked) [R4Pam2Cys]
- optical density (OD) of solutions, solubility [1]: increase in OD

Molecule: OVA: protein antigen OVA used as model antigen, alone
- division of T cells (percentage of OT-I cells which proliferated) (CD8+CD45.1+ OT-I cells): ~37%

B1: OVA: protein antigen OVA used as model antigen, alone (protein, UniProt P01012 2-386, looked up)
Ovalbumin: GSIGAASMEFCFDVFKELKVHHANENIFYCPIAIMSALAMVYLGAKDSTRTQINKVVRFDKLPGFGDSIEAQCGTSVNVHSSLRDILNQITKPNDVYSFSLASRLYAEERYPILPEYLQCVKELYRGGLEPINFQTAADQARELINSWVESQTNGIIRNVLQPSSVDSQTAMVLVNAIVFKGLWEKAFKDEDTQAMPFRVTEQESKPVQMMYQIGLFRVASMASEKMKILELPFASGTMSMLVLLPDEVSGLEQLESIINFEKLTEWTSSNVMEERKIKVYLPRMKMEEKYNLTSVLMAMGITDVFSSSANLSGISSAESLKISQAVHAAHAEINEAGREVVGSAEAGVDAASVSEEFRADHPFLFCIKHIATNAVLFFGRCVSP
- Hydrodynamic diameter (nm) ([2]; DLS at 25° C in PBS, mixtures: OVA 25 μg, 1:3 molar ratio protein to lipopeptide): 199.5 ± 42.6 nm
- % Pd (polydispersity) ([2]; DLS at 25° C, <20% is considered monodispersed): 27.1 ± 11.5%
- particle size of sample alone ([2]; OVA or lipopeptide alone): 157-242 nm
